According to article PMC8386928 (Science Advances, 2021):

Target: biotinylated PepT2 (C-terminal Avi tag) (Rattus norvegicus, UniProt Q63424, biotin (on the Avi tag, by BirA))
Test: BLI

Sequence of biotinylated PepT2 (C-terminal Avi tag) (Q63424 whole entry): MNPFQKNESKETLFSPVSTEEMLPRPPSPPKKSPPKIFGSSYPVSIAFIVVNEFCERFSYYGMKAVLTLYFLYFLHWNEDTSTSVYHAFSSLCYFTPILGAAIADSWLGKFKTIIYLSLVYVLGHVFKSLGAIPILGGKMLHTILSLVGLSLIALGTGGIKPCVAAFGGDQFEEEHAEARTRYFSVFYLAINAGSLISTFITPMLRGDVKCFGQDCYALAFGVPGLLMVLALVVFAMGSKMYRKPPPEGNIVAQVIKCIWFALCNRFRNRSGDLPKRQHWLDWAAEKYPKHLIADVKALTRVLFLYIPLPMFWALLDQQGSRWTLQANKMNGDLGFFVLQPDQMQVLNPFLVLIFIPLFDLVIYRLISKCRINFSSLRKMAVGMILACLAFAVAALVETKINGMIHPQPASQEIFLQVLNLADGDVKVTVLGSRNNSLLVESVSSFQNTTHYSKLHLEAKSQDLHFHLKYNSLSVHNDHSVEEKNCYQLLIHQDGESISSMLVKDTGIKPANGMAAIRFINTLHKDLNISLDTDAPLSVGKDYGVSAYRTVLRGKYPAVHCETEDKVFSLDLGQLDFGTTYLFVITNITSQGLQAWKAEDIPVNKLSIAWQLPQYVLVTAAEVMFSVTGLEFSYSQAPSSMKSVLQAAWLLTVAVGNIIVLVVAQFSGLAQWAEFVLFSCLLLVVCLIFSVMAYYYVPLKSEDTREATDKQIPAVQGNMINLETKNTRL

B1: nanobody D8 (VHH)
VHH: QVQLVESGGGLVQPGGSLRLLCVASGRPFNDYDMGWFRQAPGKEREFVASISWSGRVTDYSDSMKGRCTVSRDNAKGTMFLQMSNLVPRDTAVYYCAAARRRWTFKATNTEEFYETWGQGTQVTVSS
How did the Kd turn out when B1 was run?
The Kd was ~25 nM.
